Data published in patent US20140134202A1 (FOLIA BIOTECH, published 2014).

Target: the molecule itself
Assay: gel filtration (Superdex 200), self-association into disks

B1: CP.DELTA.N5 PapMV coat protein (recombinant, N-terminal 5 amino acids deleted, alanine inserted at p (other)
chain: MASTPNIAFPAITQEQMSSIKVDPTSNLLPSQEQLKSVSTLMVAAKVPAASVTTVALELVNFCYDNGSSAYTTVTGPSSIPEISLAQLASIVKASGTSLRKFCRYFAPIIWNLRTDKMAPANWEASGYKPSAKFAAFDFFDGVENPAAMQPPSGLTRSPTQEERIANATNKQVHLFQAAAQDNNFASNSAFITKGQISGSTPTIQFLPPPE
notes: also called CPΔN5; CPΔN5 PapMV VLP
  binding result: binds
